Drawing on PMC12381709, “Fluorinating the Sugar and the Nucleotide: Exploring Fluorination Within GDP-Mannose Probes Using Chemoenzymatic Synthesis” (JACS Au, 2025), this text covers Km and kcat for 1 substance.

Assay in all cases: purified protein
Common to all, as to settings: co-substrate NAD+

For data set [1], the system named is Nc1nc2c(ncn2[C@@H]2O[C@H](COP(=O)(O)OP(=O)(O)O[C@H]3O[C@H](CO)[C@@H](O)[C@H](O)[C@@H]3O)[C@@H](O)[C@H]2F)c(=O)[nH]1.
Data set [2] deals with Nc1nc2c(ncn2[C@@H]2O[C@H](COP(=O)(O)OP(=O)(O)O[C@H]3O[C@H](CO)[C@@H](O)[C@H](O)[C@@H]3F)[C@@H](O)[C@H]2F)c(=O)[nH]1.
Data set [3] has as its system Nc1nc2c(ncn2[C@@H]2O[C@H](COP(=O)(O)OP(=O)(O)O[C@H]3O[C@H](CO)[C@@H](O)[C@H](O)[C@@H]3O)[C@@H](O)[C@H]2O)c(=O)[nH]1.
The test system of data set [4] is Nc1nc2c(ncn2[C@@H]2O[C@H](COP(=O)(O)OP(=O)(O)O[C@H]3O[C@H](CO)[C@@H](O)[C@H](O)[C@@H]3F)[C@@H](O)[C@H]2O)c(=O)[nH]1.

For orientation: Km means the concentration of substrate that gives half-maximal velocity. The term kcat denotes the number of substrate molecules converted per active site and unit of time at saturation. As to “GDP-mannose dehydrogenase (GMD; PaGMD) (Pseudomonas aeruginosa PAO1)”, the Km was 20.95 ± 0.83 µM in data set [1], 87.72 ± 5.82 µM in data set [2], 18.18 ± 3.82 µM in data set [3] and 134.29 ± 12.78 µM in data set [4]. Also, the kcat came out at 0.0507 ± 0.00067 s⁻¹ in data set [1], 0.0407 ± 0.0012 s⁻¹ in data set [2], 0.0427 ± 0.00333 s⁻¹ in data set [3] and 0.0655 ± 0.00267 s⁻¹ in data set [4].
